Measured values as given in paper PMC11406360, “The enzymatic oxygen sensor cysteamine dioxygenase binds its protein substrates through their N-termini” (The Journal of Biological Chemistry, 2024).
Where a chain is given by its changes, count along the chain named. Names may count otherwise. “And” between values parts separate entries of the source, which are not always exact repeats. Equal values may be shown once. Blank lines part the entries; values can stand above or below the molecule they belong to.

Key:
[1] = molecular target: 2-aminoethanethiol (cysteamine) dioxygenase (ADO), biotinylated, for SPR (human) (UniProt Q96SZ5); assay: SPR; Biacore T200; biotinylated ADO immobilized on a Biotin CAP chip (∼2500 to 3000 RU), peptide/protein substrates injected; 4 °C; 20 mM Hepes pH 7.5, 500 mM NaCl, 10 mM DTT, 0.1% tween-20; 50 μl/min; multicycle, equilibrium steady state affinity 1:1 binding model
[2] = substrate: CC(C)C[C@H](NC(=O)CNC(=O)[C@H](CCCCN)NC(=O)[C@@H](N)CS)C(=O)N[C@@H](C)C(=O)N[C@@H](C)C(=O)N[C@@H](CC(C)C)C(=O)N1CCC[C@H]1C(=O)N[C@@H](Cc1c[nH]cn1)C(=O)N[C@@H](CO)C(=O)N[C@@H](CS)C(=O)N[C@@H](CC(C)C)C(=O)N[C@@H](CCC(=O)O)C(=O)N[C@@H](CCCNC(=N)N)C(N)=O; assay: LC-MS enzyme activity assay (Nt-cys sulfinylation by ADO); type: biochemical, human; conditions: other: Michaelis-Menten, stopped LC-MS assay, atmospheric O2, three independent experiments, pH 7.5
Procedure: (§1) […] Otherwise stated, the reaction buffer contained 50 mM Tris pH 7.5, 50 mM NaCl, and 5 mM TCEP. The reactions were quenched by mixing the sample 1:10 (peptide) or 1:5 (protein) with 1% formic acid (v/v).
(§2) Peptide and protein samples were injected onto a Chromolith RP-18 Endcapped HPLC Columns (100–2 mm; Merck) and Discovery BIO Wide Pore C5 HPLC Column (Supelco), respectively, heated to 40 °C and eluted at 0.3 ml/min using a gradient of 95% deionized water supplemented with 0.1% (v/v) formic acid to 95% acetonitrile. Oxidation was monitored by an ultra high-performance liquid chromatography MS using ExionLC AD (Sciex) and SelexION (Sciex) mass spectrometer operated in a positive electrospray TOF (+ESI-TOF) mode. Instrument parameters, data acquisition and data processing were controlled by Analyst software (Sciex; https://sciex.com/products/software/analyst-software). The peptide data processing was performed using Skyline software (MacCoss Lab Software; https://skyline.ms/project/home/software/Skyline/begin.view) ([38]). All figures and parameters were generated using GraphPad Prism 9 (GraphPad; https://www.graphpad.com/features).

[3] = substrate: CC(C)C[C@H](NC(=O)CNC(=O)[C@H](C)NC(=O)[C@@H](N)CS)C(=O)N[C@@H](C)C(=O)N[C@@H](C)C(=O)N[C@@H](CC(C)C)C(=O)N1CCC[C@H]1C(=O)N[C@@H](Cc1c[nH]cn1)C(=O)N[C@@H](CO)C(=O)N[C@@H](CS)C(=O)N[C@@H](CC(C)C)C(=O)N[C@@H](CCC(=O)O)C(=O)N[C@@H](CCCNC(=N)N)C(N)=O; assay: as above; type: biochemical, human; conditions: other: Michaelis-Menten, stopped LC-MS assay, 37 °C, atmospheric O2; three independent experiments; pH 7.5; 37.0 °C
Procedure: as §1, §2

[4] = substrate: CC(C)C[C@H](NC(=O)[C@H](C)NC(=O)[C@H](CCCCN)NC(=O)[C@@H](N)CS)C(=O)N[C@@H](C)C(=O)N[C@@H](C)C(=O)N[C@@H](CC(C)C)C(=O)N1CCC[C@H]1C(=O)N[C@@H](Cc1c[nH]cn1)C(=O)N[C@@H](CO)C(=O)N[C@@H](CS)C(=O)N[C@@H](CC(C)C)C(=O)N[C@@H](CCC(=O)O)C(=O)N[C@@H](CCCNC(=N)N)C(N)=O; assay: as above; type: biochemical, human; conditions: other: Michaelis-Menten, stopped LC-MS assay, 37 °C, atmospheric O2; three independent experiments; pH 7.5; 37.0 °C
Procedure: as §1, §2

[5] = molecular target: T1, 2-aminoethanethiol (cysteamine) dioxygenase (ADO), biotinylated, for SPR (human, UniProt Q96SZ5 1-270, biotin (N terminally biotinylated; 0.2 mM biotin added at induction)); assay: SPR
T1 chain: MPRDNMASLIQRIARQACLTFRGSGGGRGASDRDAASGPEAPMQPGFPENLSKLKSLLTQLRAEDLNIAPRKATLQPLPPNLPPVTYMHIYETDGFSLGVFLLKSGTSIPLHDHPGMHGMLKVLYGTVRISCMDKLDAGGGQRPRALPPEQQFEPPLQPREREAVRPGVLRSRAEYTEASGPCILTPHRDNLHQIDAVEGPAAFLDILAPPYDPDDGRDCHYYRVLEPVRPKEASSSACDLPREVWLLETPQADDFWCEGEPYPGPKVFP

[6] = molecular target: T2, ADO-H193D, biotinylated, for SPR (human, UniProt Q96SZ5 1-270, H193D, biotin (N terminally biotinylated)); assay: SPR; Biacore T200; biotinylated ADO immobilized on a Biotin CAP chip (∼2500 to 3000 RU), peptide/protein substrates injected; 4 °C; 20 mM Hepes pH 7.5, 500 mM NaCl, 10 mM DTT, 0.1% tween-20; 50 μl/min; multicycle, equilibrium steady state affinity 1:1 binding model; conditions: both partners purified
T2 construct: 2-aminoethanethiol (cysteamine) dioxygenase (ADO), human, UniProt Q96SZ5, full length, H193D; Mutant with impaired iron retention (reduced metal occupancy by ICP-MS); source: E. coli Rosetta2(DE3), pQE80L-Navi construct, site-directed mutagenesis, purified (Ni-NTA, SEC); not shown: biotinylation tag (from the vector pQE80L-Navi), N-terminal, kept
T2 sequence (looked up): T1 chain with H193D

[7] = molecular target: cobalt substituted ADO (ADO-Co^2+), biotinylated, for SPR (human) (UniProt Q96SZ5); assay: SPR; as a1, but single cycle kinetics (SCK) mode fit to a 1:1 binding model; ADO-Co^2+ immobilized
[8] = molecular target: T1, 2-aminoethanethiol (cysteamine) …; assay: SPR; post-reconstitution with Fe2+
[9] = molecular target: T1, 2-aminoethanethiol (cysteamine) …; assay: SPR; post-metal removal (phenanthroline/EDTA)
[10] = molecular target: T3, cobalt substituted ADO (ADO-Co^2+), biotinylated, for SPR (human, UniProt Q96SZ5 1-270, biotin (N terminally biotinylated)); assay: SPR; single cycle kinetics
T3 chain: T1 chain

[11] = molecular target: ADO-H193D, biotinylated, for SPR (human, UniProt Q96SZ5 1-270, H193D, biotin (N terminally biotinylated)); assay: SPR
[12] = molecular target: T1, 2-aminoethanethiol (cysteamine) …; assay: SPR; before treatment

Kd [5]: 240 nM
Molecule: CKGLAALPASCLER [RGS5-H10A]

fold weaker KD than with WT ADO [6]: ~77 fold | fold increase in binding affinity relative to native ADO [7]: 10 fold
B2: native IL32 peptide (first 14 amino acids of the methionine excised N terminus of interleukin 32) (peptide, UniProt P24001 2-15, looked up)
peptide: CFPKVLSDDMKKLK
notes: interleukin 32 (IL32), first 14 amino acids of the methionine excised N terminus: residues 2-15 with the initiating methionine denoted as 1; source: synthetic peptide (SPPS, HPLC purified)

Kd [8]: 330 nM | Kd [9]: 320 nM | fold weaker KD than with WT ADO [6]: ~13 fold | fold increase in binding affinity relative to native ADO [7]: 10 fold | Kd [10]: 27 nM | Kd [11]: 3300 nM | Kd [12]: 370 nM
B3: native RGS5 peptide (first 14 amino acids of the methionine excised N terminus of RGS5) (peptide, UniProt O15539 2-15, looked up)
peptide: CKGLAALPHSCLER
notes: regulator of G-protein signaling 5 (RGS5), first 14 amino acids of the methionine excised N terminus: residues 2-15 with the initiating methionine denoted as 1; source: synthetic peptide (SPPS, HPLC purified)

Continued, molecule first:

Molecule: RGS5 tripeptide (tri-RGS5) (from UniProt O15539 2-4)
Kd [1]: 460 nM

Molecule: RGS5 dipeptide (di-RGS5) (from UniProt O15539 2-3)
Kd [1]: 1200 nM

B1: ADO (Homo sapiens) (protein)
chain: T1 chain
notes: Full-length human ADO (UniProt ID: Q96SZ5) was cloned; made in house; host or cells: Rosetta2(DE3) Escherichia coli
Km ([2]; 25 °C, 25.0 °C): 62 µM and 125 µM | kcat ([2]; 25 °C, 25.0 °C): 7 s⁻¹ and 19 s⁻¹ | kcat/Km ([2]; 25 °C, 25.0 °C): 1.1 x 10^5 s^-1M^-1 and 1.5 x 10^5 s^-1M^-1 | Km ([2]; 37 °C, 37.0 °C): 83 µM | kcat ([2]; 37 °C, 37.0 °C): 22 s⁻¹ | Km [3]: 1970 µM | kcat [3]: 100 s⁻¹ | kcat/Km [3]: 0.51 x 10^5 s^-1M^-1 | Km [4]: 33 µM | kcat [4]: 8 s⁻¹ | kcat/Km [4]: 2.4 x 10^5 s^-1M^-1
